Assay results reported in US20220362404A1 (MACQUARIE UNIVERSITY, published 2022).

T1: Flag-tagged cyclin F (Homo sapiens (Human), UniProt P41002 1-786)
T1 construct: Expressed in HEK293 cells and immunoprecipitated with anti-Flag; In the ubiquitylation assay it stood with co-immunoprecipitated Skp1, Cul1 and Rbx1; also called cyclin F-flag; Flag-cyclin F; not shown: C-terminal Flag tag
T1 sequence: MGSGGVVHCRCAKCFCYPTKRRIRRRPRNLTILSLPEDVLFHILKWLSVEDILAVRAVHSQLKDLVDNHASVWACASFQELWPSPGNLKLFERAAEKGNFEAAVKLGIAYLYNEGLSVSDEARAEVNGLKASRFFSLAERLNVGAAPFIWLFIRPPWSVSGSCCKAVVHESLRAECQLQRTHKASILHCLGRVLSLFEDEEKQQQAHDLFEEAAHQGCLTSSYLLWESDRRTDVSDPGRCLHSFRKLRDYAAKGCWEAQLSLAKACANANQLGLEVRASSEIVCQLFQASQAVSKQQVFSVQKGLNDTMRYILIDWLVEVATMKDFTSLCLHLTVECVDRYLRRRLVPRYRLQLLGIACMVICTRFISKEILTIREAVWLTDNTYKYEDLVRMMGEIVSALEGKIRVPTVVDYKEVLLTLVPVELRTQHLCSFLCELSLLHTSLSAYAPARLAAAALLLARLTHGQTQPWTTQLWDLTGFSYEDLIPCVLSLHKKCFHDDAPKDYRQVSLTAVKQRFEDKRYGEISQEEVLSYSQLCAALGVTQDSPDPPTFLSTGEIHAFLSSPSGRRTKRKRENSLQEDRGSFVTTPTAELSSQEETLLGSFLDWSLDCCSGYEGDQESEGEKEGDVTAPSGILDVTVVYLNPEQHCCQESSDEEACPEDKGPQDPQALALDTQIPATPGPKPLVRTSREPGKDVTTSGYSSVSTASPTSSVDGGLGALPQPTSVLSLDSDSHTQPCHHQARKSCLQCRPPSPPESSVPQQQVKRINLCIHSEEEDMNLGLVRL


Experiments:
Flag-tagged cyclin F = biological target: T1, Flag-tagged cyclin F; assay: co-immunoprecipitation with anti-myc from HEK293 lysate, immunoblot
Procedure: A. HEK293 cells were transfected with cyclin F-flag and TDP-43-HA. After 24 hours, cells were lysed and anti-flag antibodies or an IgG control were used to immunoprecipitate Flag-cyclin F. Eluates were analyzed by immunoblotting using antibodies recognizing cyclin F and TDP-43. B. HEK293 cells were transfected with cyclin F-flag and TDP-43-HA. At 24 hours post-transfection, cells were lysed and Flag-cyclin F was immunoprecipitated using antibodies recognizing the Flag tag. Eluates were analyzed by immunoblotting using antibodies recognizing cyclin F and phospho-TDP-43 (S409/410). C. Schematic showing the position of the RxL>AxA mutation within TDP-43. D. Cells were transfected with cyclin F and TDP-43(WT) or TDP-43(RxL>AxA). Cyclin F was immunoprecipitated from cell lysates using antibodies recognizing the Flag tag. Eluates were analyzed using anti-cyclin F and anti-TDP-43. E. Schematic showing the TDP-43 fragments used for immunoprecipitations. […] Eluates were analyzed by immunoblotting using antibodies recognizing cyclin F and myc.
In order to determine whether cyclin F interacts with TDP-43 through the typical RxL motif present in all known cyclin F substrates, constructs expressing wild-type TDP-43 or variant TDP-43 (RxL>AxA) were transfected into HEK293 cells (FIG. 1C). After 24 hours, the cells were lysed and Flag-cyclin F was immunoprecipitated and analyzed for TDP-43 by immunoblotting. […]

[1] = biological target: T2, recombinant His-tagged TDP-43 (full length) (UniProt Q13148 1-414); assay: microscale thermophoresis, labelled His-TDP-43, GST-cyclin domain titrated
T2 construct: In MST it was labelled with RED-tris-NTA dye on the His tag; also called His-TDP-43; recombinant TDP-43; not shown: His tag, printed as His-TDP-43
Procedure: Recombinant His-tagged TDP-43 (a gift from Professor Julie Atkin's laboratory) was diluted to 200 nM in PBS-T buffer (137 mM NaCl, 2.5 mM KCl, 10 mM Na2HPO4, 2 mM KH2PO4, pH 7.4; 0.05% (v/v) Tween-20). The RED-tris-NTA dye was diluted in PBS-T to 100 nM. For labelling, the recombinant protein and diluted dye were mixed in a 1:1 volume ratio and incubated for 30 minutes at room temperature. Recombinant cyclin F-GST was also diluted in PBS-T buffer prior to analysis. Concentrations of cyclin F-GST (cyclin box) ranged from 0-22 μM. Before MST measurements were carried out, samples were centrifuged for 10 minutes at 4° C. at 14,000×g. All MST measurements were performed on a NanoTemper Monolith™NT.115 instrument using standard treated capillaries at room temperature. Final dye concentration of 25 nM yielded the fluorescence intensity of around 300 counts at a LED power of 50%. Accordingly, the MST power range was between 40-60% intensity with a laser-on time of 30 s and a laser-off time of 5 s. All data were analysed by MO Affinity Analysis Software.

| Binder | binding result (Flag-tagged cyclin F) | binding result [1] |
| --- | --- | --- |
| Myc-tagged C-terminal fragment of TDP-43 (167-414) (other, UniProt Q13148 167-414, looked up, Over-expressed in HEK293 cells with Flag-cyclin F; also called myc-TDP-43; not shown: myc tag, printed as myc-TDP-43) MIDGRWCDCKLPNSKQSQDEPLRSRKVFVGRCTEDMTEDELREFFSQYGDVMDVFIPKPFRAFAFVTFADDQIAQSLCGEDLIIKGISVHISNAEPKHNSNRQLERSGRFGGNPGGFGNQGGFGNSRGGGAGLGNNQGSNMGGGMNFGAFSINPAMMAAAQAALQSSWGMMGMLASQQNQSGPSGNNQNQGNMQREPNQAFGSGNNSYSGSNSGAAIGWGSASNAGSGSGFNGGFGSSMDSKSSGWGM | no binding |  |
| GST-cyclin domain of cyclin F (aa 302-497) (other, Made in E. coli from pGEX5; also called cyclin box of cyclin F; cyclin F-GST (cyclin box); not shown: glutathione S-transferase (GST) tag of the pGEX5 vector) QKGLNDTMRYILIDWLVEVATMKDFTSLCLHLTVECVDRYLRRRLVPRYRLQLLGIACMVICTRFISKEILTIREAVWLTDNTYKYEDLVRMMGEIVSALEGKIRVPTVVDYKEVLLTLVPVELRTQHLCSFLCELSLLHTSLSAYAPARLAAAALLLARLTHGQTQPWTTQLWDLTGFSYEDLIPCVLSLHKKCF |  | binds |
